Where two headings read alike, the source gives them in different places.
Legend:
Experiment in all cases: cryo-EM structure
[1] = biological target: Human Slo1 (hSlo1), BK channel α subunit, residues 1-1056 (human)
[2] = biological target: Human Slo1 (hSlo1), BK channel α subunit, residues 1-1056 (human); remark: listed apart in the source
[3] = biological target: Human Slo1 (hSlo1), BK channel α subunit, residues 1-1056 (human); remark: listed apart in the source
[4] = biological target: Human Slo1 (hSlo1), BK channel α subunit, residues 1-1056 (human); remark: listed apart in the source

stoichiometry N [1]: 4 | stoichiometry N [2]: 4 | stoichiometry N [3]: 4 | stoichiometry N [4]: 4
Substance: Human Slo1 (hSlo1), BK channel α subunit, residues 1-1056 (natural protein)

From PMC11840039
